Assay results taken from the DeepSol protein solubility set.

Test: soluble on expression in E. coli; label from the status in PepcDB or PDB records

| Sequence | soluble on expression in E. coli |
| --- | --- |
| MYTLIIPAAGQGKRMGAGKNKLFLLINEVPIIVHTLRAFEKDKACKNIIMAINEEERPYFEELMQKYPVEKPVQFIQGGAERQDSVYNAIQHTTDVEYVLVHDGARPFVTNKVIQDVLTAAEKYGASICAVPVKDTVKKVEQGVVVETVERSQLKAVQTPQGFSVSLLLEAHRSAKQSCFLGTDDASLVERIGKQVGVVEGSYYNIKVTTPEDLLIAESFLHVQKK | not soluble |
| MGHHHHHHSHLKKNEQNFKLAGVKKDIEKLYEAVPQLSNVFKIEDKIGEGTFSSVYLATAQLQVGPEEKIALKHLIPTSHPIRIAAELQCLTVAGGQDNVMGVKYCFRKNDHVVIAMPYLEHESFLDILNSLSFQEVREYMLNLFKALKRIHQFGIVHRDVKPSNFLYNRRLKKYALVDFGLAQGTHDTKIELLKFVQSEAQQERCSQNKSHIITGNKIPLSGPVPKELDQQSTTKASVKRPYTNAQIQIKQGKDGKEGSVGLSVQRSVFGERNFNIHSSISHESPAVKLMKQSKTVDVLSRKLATKKKAISTKVMNSAVMRKTASSCPASLTCDCYATDKVCSICLSRRQQVAPRAGTPGFRAPEVLTKCPNQTTAIDMWSAGVIFLSLLSGRYPFYKASDDLTALAQIMTIRGSRETIQAAKTFGKSILCSKEVPAQDLRKLCERLRGMDSSTPKLTSDIQGHASHQPAISEKTDHKASCLVQTPPGQYSGNSFKKGDSNSCEHCFDEYNTNLEGWNEVPDEAYDLLDKLLDLNPASRITAEEALLHPFFKDMSL | not soluble |
| MKTIRLTTAQALVKFLNQQYVEFDGHIQKFVKGIFTIFGHGNVLGLGQALEEDPGELEVYQGRNEQGMAHAAIAFAKQKHRRQIMACTSSVGPGAANMVTAAATASANHIPVLLLPGDTFATRQPDPVLQQIEHWHDLTVSTNDAFRAVSKYWDRISRPEQLMSAMIQAMRVLTDPANTGAVTIALPQDVQGEAYDFPESFFQKRIHRIERRVPAKAAIHEAVELIRRKKKPIIICGGGVRYSEAAEELKQFAEKFHIPYGETQAGKSAVESAHPYNLGGIGVTGNLAANIIAKEADLVIGIGTRYTDFTTGSKQLFQHPEVEFLTINVSVFDACKLDAVRVVADAKLALLALTEELEKIGYRSGYTNEIDIAKKAWEEELNRLHHVRYRQSGFQPEVAGHLDEVLTEYSEFFDSSLTQTEVIGAINEWIDDDAIIIGAAGSLPGDLQRMWVARRPNTYHMEYGYSCMGYEIAGALGVKMAEPDKEVYAMVGDGSYLMLHSELVTSIQEKKKINVLLFDNGGFGCINNLQMGHGMGSFATEFRYRNEETGRLDGSLIPIDFAQSAAGYGVKTYKVHTLEQLKEALEDAKQQSVSTLIDIKVLPKTMTHDYESWWHVGVAEVSRNPKIAEAYKRKEQQLQRARKY | soluble |
| MMEMLVDQGTDASSSASTSTSSVSRFGADTFMNTPDDVMMNDDMEPIPRDRCNTWPMRRPQLEPPLNSSPIIHEQIPEEDADLYGSNEQCGQLGGASSNGSTAMLHTPDGSNSHQTSFPSDFRMSESPDDTVSGKKTTTRRNAWGNMSYAELITTAIMASPEKRLTLAQVYEWMVQNVPYFRDKGDSNSSAGWKNSIRHNLSLHSRFMRIQNEGAGKSSWWVINPDAKPGRNPRRTRERSNTIETTTKAQLEKSRRGAKKRIKERALMGSLHSTLNGNSIAGSIQTISHDLYDDDSMQGAFDNVPSSFRPRTQSNLSIPGSSSRVSPAIGSDIYDDLEFPSWVGESVPAIPSDIVDRTDQMRIDATTHIGGVQIKQESKPIKTEPIAPPPSYHELNSVRGSCAQNPLLRNPIVPSTNFKPMPLPGAYGNYQNGGITPINWLSTSNSSPLPGIQSCGIVAAQHTVASSSALPIDLENLTLPDQPLMDTMDVDALIRHELSQAGGQHIHFDL | not soluble |
| MGSDKIHHHHHHMTYDYTEPTLSAKGQRMRDILADYIALISHRLPDDVTAKLEELSKIEVDPLQKLVYDTMMENQLLANKLKRPSCQDTGALQFFIKCGAQFPLLGELNQILKDAVYRGTKKAPLRHNAVQTFDEYNTGMNIGDGIPSIFLQVDGNGTDISMYVYMAGGGCTLPGAAKVLMPGEGYEGVVRFVMDRMTSYGINACPPLLVGVGVATSVETAALNSKLALMRRVDSENPNANAAKLEHLLEDGINHIGLGPQGFGGQKSVMGVNVENTARHPSTIGVAVSTGCWSHRRGLINFDADLNYDLPLNKGVELS | not soluble |
